Experimental data reported in PMC10691244, “The mechanism of Gαq regulation of PLCβ3-catalyzed PIP2 hydrolysis” (Proceedings of the National Academy of Sciences of the …, 2023).

Molecular target: T1, Phospholipase Cβ3 (PLCβ3), wild type (UniProt Q01970 10-1234)
T1 construct: Phospholipase Cβ3; The CTD linker and distal CTD are disordered in the structures; also called wild-type PLCβ3
T1 sequence: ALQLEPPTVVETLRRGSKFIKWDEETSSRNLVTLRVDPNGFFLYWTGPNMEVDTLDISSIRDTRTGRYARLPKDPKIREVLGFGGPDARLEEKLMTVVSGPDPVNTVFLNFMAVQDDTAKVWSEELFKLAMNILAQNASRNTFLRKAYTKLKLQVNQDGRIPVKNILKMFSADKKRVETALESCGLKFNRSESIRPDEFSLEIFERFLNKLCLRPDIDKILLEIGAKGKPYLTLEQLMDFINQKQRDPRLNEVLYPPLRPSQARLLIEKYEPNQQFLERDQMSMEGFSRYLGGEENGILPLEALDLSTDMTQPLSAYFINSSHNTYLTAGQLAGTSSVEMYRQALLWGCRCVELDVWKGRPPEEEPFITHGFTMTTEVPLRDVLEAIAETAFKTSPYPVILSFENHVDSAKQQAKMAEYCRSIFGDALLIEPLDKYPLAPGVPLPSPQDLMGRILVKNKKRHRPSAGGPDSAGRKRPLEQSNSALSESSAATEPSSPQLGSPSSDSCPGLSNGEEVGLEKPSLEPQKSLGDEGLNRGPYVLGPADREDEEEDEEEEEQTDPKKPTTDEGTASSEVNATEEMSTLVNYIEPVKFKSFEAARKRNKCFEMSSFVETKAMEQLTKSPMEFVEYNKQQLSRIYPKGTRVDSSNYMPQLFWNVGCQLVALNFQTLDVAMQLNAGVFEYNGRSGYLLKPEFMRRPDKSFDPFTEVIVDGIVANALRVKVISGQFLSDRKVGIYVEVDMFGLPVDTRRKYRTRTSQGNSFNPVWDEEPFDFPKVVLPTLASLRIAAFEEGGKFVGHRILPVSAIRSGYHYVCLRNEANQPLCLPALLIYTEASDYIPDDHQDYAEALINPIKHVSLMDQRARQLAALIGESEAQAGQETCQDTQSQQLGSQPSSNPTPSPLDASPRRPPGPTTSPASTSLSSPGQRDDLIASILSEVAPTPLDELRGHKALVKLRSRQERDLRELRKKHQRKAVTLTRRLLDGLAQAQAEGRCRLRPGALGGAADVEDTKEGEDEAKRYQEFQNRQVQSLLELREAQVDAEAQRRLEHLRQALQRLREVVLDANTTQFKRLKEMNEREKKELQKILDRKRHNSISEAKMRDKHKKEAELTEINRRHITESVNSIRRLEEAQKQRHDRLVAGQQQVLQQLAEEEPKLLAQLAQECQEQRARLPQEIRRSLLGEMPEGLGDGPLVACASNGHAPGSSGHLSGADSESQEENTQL
Test: cryo-EM structure; PLCβ3 mixed with wildtype Gαq bound to GDP-AlF4, then added to 2DOPE:1POPC:1POPS (wt:wt:wt) vesicles with reconstituted lipidated Gβγ; 3.4 Å
Settings: both partners purified

- stoichiometry N: 1
B1: Gαq, wild type, nonlipidated, bound to GDP-AlF4 (natural protein)
chain: MACCLSEEAKEARRINDEIERQLRRDKRDARRELKLLLLGTGESGKSTFIKQMRIIHGSGYSDEDKRGFTKLVYQNIFTAMQAMIRAMDTLKIPYKYEHNKAHAQLVREVDVEKVSAFENPYVDAIKSLWNDPGIQECYDRRREYQLSDSTKYYLNDLDRVADPAYLPTQQDVLRVRVPTTGIIEYPFDLQSVIFRMVDVGGQRSERRKWIHCFENVTSIMFLVALSEYDQVLVESDNENRMEESKALFRTIITYPWFQNSSVILFLNKKDLLEEKIMYSHLVDYFPEYDGPQRDAQAAREFILKMFVDLNPDSDKIIYSHFTCATDTENIRFVFAAVKDTILQLNLKEYNLV
notes: In the structures the N terminus is disordered until position 38; Construct limits, any chimeric N terminus, host and tags are described only in SI Appendix, Materials and Methods; also called wildtype Gαq; wild-type Gαq
